Measured values from IntAct's records for PubMed 9605924.

B1: Thyroid hormone receptor beta (Homo sapiens), P10828-1 (parent)
chain: MTPNSMTENGLTAWDKPKHCPDREHDWKLVGMSEACLHRKSHSERRSTLKNEQSSPHLIQTTWTSSIFHLDHDDVNDQSVSSAQTFQTEEKKCKGYIPSYLDKDELCVVCGDKATGYHYRCITCEGCKGFFRRTIQKNLHPSYSCKYEGKCVIDKVTRNQCQECRFKKCIYVGMATDLVLDDSKRLAKRKLIEENREKRRREELQKSIGHKPEPTDEEWELIKTVTEAHVATNAQGSHWKQKRKFLPEDIGQAPIVNAPEGGKVDLEAFSHFTKIITPAITRVVDFAKKLPMFCELPCEDQIILLKGCCMEIMSLRAAVRYDPESETLTLNGEMAVTRGQLKNGGLGVVSDAIFDLGMSLSSFNLDDTEVALLQAVLLMSSDRPGLACVERIEKYQDSFLLAFEHYINYRKHHVTHFWPKLLMKVTDLRMIGACHASRFLHMKVECPTELFPPLFLEVFED

Experiments:
[1] = variants of: B1; conditions: with ncor2_human NCOR2, Q9Y618
ncor2_human NCOR2, Q9Y618, sequence (Q9Y618 whole entry): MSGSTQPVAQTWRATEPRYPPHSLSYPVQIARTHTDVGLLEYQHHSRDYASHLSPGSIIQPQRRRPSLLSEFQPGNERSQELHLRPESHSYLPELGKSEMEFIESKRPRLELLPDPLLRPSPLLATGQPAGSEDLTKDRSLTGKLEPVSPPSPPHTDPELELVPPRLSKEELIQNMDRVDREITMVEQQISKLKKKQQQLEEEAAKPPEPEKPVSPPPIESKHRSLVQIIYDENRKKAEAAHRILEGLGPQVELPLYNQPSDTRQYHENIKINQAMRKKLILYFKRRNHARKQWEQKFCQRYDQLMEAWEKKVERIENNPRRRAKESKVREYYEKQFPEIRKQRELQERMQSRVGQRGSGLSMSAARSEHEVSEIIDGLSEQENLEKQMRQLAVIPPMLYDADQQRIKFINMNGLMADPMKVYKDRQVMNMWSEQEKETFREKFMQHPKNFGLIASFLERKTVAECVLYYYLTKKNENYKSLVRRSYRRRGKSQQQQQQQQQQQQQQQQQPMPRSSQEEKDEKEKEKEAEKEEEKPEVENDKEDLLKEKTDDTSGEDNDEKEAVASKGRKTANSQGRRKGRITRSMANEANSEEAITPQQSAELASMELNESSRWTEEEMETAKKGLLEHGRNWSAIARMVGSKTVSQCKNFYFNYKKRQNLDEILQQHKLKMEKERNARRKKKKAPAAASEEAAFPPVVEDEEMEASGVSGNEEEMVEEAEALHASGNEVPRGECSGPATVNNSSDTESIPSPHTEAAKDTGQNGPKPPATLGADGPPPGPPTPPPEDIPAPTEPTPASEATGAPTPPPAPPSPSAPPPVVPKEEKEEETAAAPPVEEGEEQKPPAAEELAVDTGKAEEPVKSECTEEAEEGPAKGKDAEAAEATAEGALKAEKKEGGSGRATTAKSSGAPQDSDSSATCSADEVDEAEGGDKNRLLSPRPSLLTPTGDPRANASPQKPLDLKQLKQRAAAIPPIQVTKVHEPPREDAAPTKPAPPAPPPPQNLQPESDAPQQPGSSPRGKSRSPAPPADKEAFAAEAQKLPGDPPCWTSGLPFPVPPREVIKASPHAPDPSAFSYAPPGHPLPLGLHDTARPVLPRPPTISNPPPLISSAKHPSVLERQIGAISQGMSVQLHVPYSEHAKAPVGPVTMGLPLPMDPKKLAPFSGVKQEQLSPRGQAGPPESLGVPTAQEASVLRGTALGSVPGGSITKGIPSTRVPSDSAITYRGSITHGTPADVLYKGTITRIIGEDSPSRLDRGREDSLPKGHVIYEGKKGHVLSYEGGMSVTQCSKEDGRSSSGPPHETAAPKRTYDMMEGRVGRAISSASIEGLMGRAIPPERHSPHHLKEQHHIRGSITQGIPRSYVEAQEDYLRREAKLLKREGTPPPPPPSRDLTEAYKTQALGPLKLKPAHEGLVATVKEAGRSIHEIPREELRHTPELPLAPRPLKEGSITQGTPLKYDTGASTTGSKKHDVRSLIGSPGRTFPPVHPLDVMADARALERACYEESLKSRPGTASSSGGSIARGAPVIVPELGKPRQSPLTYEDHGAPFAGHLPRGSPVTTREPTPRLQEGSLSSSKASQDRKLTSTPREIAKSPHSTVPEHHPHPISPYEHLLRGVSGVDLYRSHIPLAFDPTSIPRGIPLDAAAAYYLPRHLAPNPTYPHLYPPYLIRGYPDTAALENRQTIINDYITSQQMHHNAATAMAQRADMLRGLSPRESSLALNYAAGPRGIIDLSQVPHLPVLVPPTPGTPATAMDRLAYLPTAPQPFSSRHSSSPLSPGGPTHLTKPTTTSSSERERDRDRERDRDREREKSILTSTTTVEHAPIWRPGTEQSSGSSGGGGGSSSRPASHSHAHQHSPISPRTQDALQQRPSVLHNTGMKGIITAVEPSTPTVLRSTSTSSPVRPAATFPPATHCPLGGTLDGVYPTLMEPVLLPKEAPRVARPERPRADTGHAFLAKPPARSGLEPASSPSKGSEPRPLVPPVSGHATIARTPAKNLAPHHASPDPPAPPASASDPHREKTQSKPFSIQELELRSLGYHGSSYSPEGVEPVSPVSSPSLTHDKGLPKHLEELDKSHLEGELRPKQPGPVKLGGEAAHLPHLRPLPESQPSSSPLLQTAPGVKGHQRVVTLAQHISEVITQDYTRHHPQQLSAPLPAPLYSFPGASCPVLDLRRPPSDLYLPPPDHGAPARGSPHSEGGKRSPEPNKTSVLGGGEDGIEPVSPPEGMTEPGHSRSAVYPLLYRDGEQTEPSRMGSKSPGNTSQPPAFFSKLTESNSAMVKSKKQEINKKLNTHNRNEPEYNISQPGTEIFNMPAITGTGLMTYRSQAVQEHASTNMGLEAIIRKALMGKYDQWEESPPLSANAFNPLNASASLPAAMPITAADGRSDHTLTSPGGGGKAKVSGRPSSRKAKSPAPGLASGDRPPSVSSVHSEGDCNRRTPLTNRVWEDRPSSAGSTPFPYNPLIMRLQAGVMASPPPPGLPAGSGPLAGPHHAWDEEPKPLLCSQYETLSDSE

[2] = variants of: B1; conditions: with ncoa1_human NCOA1, Q15788
ncoa1_human NCOA1, Q15788, sequence (Q15788 whole entry): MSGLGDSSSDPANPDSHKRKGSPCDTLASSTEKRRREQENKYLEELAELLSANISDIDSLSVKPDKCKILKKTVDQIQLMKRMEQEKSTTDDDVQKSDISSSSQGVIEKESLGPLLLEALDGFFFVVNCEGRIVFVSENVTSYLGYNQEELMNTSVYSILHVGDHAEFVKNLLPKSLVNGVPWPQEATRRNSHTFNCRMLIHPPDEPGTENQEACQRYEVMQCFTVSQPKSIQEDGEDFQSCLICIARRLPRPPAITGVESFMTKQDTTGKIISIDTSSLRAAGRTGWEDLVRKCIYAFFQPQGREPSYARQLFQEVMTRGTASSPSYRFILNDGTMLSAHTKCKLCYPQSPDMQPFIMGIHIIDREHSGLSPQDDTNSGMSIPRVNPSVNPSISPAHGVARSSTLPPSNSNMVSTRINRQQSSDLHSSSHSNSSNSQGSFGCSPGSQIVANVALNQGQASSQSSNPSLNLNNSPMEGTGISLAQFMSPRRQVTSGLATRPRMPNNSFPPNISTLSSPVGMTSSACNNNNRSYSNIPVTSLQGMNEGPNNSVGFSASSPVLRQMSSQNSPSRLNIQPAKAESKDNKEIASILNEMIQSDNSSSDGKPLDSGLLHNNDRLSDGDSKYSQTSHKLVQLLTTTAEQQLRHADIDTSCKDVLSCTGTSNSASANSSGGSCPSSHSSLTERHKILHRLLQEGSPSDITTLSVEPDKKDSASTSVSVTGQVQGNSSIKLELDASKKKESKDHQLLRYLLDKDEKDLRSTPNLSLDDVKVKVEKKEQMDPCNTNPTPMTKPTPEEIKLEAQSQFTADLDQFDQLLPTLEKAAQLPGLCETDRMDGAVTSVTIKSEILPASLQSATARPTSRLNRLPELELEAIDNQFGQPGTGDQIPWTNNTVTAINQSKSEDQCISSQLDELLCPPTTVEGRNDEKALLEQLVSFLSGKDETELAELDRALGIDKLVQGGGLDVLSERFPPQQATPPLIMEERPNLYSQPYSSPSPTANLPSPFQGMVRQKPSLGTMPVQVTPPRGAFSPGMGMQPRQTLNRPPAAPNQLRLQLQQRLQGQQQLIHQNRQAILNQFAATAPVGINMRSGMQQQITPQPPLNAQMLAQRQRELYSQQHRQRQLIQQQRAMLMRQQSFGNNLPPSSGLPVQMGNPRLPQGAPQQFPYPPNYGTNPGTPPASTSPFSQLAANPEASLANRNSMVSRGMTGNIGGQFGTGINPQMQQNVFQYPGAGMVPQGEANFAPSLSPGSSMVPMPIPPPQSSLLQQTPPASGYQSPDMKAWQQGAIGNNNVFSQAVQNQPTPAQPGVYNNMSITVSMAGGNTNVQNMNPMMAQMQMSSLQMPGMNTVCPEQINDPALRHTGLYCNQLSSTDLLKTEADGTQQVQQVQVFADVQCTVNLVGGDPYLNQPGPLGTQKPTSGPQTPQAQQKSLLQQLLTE

Row | Variant | effect of a mutation on the interaction [1] | effect of a mutation on the interaction [2]
1 | MTPNSMTENGLTAWDKPKHCPDREHDWKLVGMSEACLHRKSHSERRSTLKNEQSSPHLIQTTWTSSIFHLDHDDVNDQSVSSAQTFQTEEKKCKGYIPSYLDKDELCVVCGDKATGYHYRCITCEGCKGFFRRTIQKNLHPSYSCKYEGKCVIDKVTRNQCQECRFKKCIYVGMATDLVLDDSKRLAKRKLIEENREKRRREELQKSIGHKPEPTDEEWELIKTVTEAHVATNAQGSHWKQKRKFLPEDIGQAPIVNAPEGGKVDLEAFSHFTKIITPAITRVVDFAKKLPMFCELPCEDQIILLKGCCMEIMSLRAAVRYDPESETLTLNGEMAVTRGQLKNGGLGVVSDAIFDLGMSLSSFNLDDTEVALLQAVLLMSSDRPGLACVERIEKYQDSFLLAFEHYINYRKHHVTHFWPKLLMKVTDLQMIGACHASRFLHMKVECPTELFPPLFLEVFED [R429Q] | increasing interaction strength | increasing interaction strength
2 | MTPNSMTENGLTAWDKPKHCPDREHDWKLVGMSEACLHRKSHSERRSTLKNEQSSPHLIQTTWTSSIFHLDHDDVNDQSVSSAQTFQTEEKKCKGYIPSYLDKDELCVVCGDKATGYHYRCITCEGCKGFFRRTIQKNLHPSYSCKYEGKCVIDKVTRNQCQECRFKKCIYVGMATDLVLDDSKRLAKRKLIEENREKRRREELQKSIGHKPEPTDEEWELIKTVTEAHVATNAQGSHWKQKRKFLPEDIGQAPIVNAPEGGKVDLEAFSHFTKIITPAITRVVDFAKKLPMFCELPCEDQIILLKGCCMEIMSLRAAVRYDPESETLTLNGEMAVTRGQLKNGGLGVVSDAIFDLGMSLSSFNLDDTEVALLQAVLLMSSDHPGLACVERIEKYQDSFLLAFEHYINYRKHHVTHFWPKLLMKVTDLRMIGACHASRFLHMKVECPTELFPPLFLEVFED [R383H] | increasing interaction strength | increasing interaction strength
